Legend:
[1] = In vitro release of LENK from NPs / bioconjugate stability in serum; type: in vitro ADME; conditions: diluted male SWISS mouse serum (30% in 5% dextrose), 37°C; RP-HPLC, UV 257 nm
[2] = system: λ-carrageenan–induced inflammatory pain injected rats; assay: Hargreaves thermal nociception test in λ-carrageenan-induced paw edema model; type: in vivo; conditions: LENK-SQ NPs 20 mg/kg i.v.; morphine 1 mg/kg; rat

## CC(C)=CCC/C(C)=C/CC/C(C)=C/CC/C=C(\C)CC/C=C(\C)CCC(=O)OCOC(=O)C(CC(C)C)NC(=O)C(Cc1ccccc1)NC(=O)CNC(=O)CNC(=O)C(N)Cc1ccc(O)cc1 (centres unmarked) [LENK-SQ-Diox, Leu-enkephalin-squalene with dioxycarbonyl linker]
[1]
  Time that the released LENK peptide still lasted in serum: over 10 hours
[2]
  AUC of PWL time course, comparison between treatments: significantly higher AUC than morphine and LENK-SQ-Am NPs

Source: publication PMC6374102 (Science Advances, 2019)
